From article PMC2749713 (Molecular cell, 2009)
Positions count from the first letter of the chain named. Names may count otherwise. No end group written: not given here.

What was measured:
[1] = target: PP2A C subunit (Cα) (human, UniProt P67775 1-309); test: crystal structure
[2] = target: FLAG-tagged MBP-Sgo1(47-105) (human, UniProt Q5FBB7 47-105); test: pull-down
[3] = target: AαB56γCα PP2A holoenzyme (human, UniProt P30153 2-589; Q13362 1-524; P67775 1-309); test: SEC + other: dynamic light scattering
AαB56γCα PP2A holoenzyme, sequence (P30153 2-589, chain 1 of 3): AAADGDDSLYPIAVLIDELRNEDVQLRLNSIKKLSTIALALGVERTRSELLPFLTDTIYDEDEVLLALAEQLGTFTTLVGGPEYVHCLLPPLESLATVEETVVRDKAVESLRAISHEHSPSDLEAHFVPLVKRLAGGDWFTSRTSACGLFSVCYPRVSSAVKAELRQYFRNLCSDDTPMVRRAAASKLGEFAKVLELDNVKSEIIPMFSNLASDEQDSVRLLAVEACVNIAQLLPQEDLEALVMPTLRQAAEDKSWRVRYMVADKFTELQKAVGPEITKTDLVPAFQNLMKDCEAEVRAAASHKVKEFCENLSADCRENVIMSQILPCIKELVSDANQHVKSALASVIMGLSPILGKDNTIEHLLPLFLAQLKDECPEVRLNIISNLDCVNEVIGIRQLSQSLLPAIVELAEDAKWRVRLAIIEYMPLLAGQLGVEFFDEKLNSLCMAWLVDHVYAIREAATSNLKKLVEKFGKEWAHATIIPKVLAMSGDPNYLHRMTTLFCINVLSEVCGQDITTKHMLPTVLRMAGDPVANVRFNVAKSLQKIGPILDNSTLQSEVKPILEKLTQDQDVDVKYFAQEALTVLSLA
AαB56γCα PP2A holoenzyme, sequence (Q13362 whole entry, chain 2 of 3): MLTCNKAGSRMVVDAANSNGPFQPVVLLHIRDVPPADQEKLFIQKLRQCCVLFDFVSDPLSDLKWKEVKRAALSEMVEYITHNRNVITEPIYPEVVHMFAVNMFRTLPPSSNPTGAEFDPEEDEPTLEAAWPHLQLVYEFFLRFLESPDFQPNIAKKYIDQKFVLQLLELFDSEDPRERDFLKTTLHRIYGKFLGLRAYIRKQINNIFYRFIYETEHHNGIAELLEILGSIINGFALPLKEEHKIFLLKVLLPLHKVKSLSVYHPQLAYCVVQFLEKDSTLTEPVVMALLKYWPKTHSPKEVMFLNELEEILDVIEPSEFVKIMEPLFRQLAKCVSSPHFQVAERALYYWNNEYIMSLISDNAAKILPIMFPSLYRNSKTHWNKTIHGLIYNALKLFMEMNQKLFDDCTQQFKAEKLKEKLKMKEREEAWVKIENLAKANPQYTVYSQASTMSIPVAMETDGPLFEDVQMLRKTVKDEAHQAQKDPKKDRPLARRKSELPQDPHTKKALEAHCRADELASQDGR
AαB56γCα PP2A holoenzyme, sequence (P67775 whole entry, chain 3 of 3): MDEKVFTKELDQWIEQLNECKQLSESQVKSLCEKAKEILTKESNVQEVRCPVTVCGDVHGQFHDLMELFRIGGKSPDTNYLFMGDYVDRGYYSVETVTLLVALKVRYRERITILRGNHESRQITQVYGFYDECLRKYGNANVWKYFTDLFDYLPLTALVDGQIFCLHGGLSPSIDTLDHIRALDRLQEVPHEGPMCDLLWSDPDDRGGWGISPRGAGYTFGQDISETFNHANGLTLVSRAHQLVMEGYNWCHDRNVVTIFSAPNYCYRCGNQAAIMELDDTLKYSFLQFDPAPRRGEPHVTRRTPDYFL

[4] = target: FLAG-tagged MBP-Sgo1(47-105) N61I (dimerization assay) (human, UniProt Q5FBB7 47-105, N61I); test: pull-down
[5] = target: FLAG-tagged MBP-Sgo1(47-105) Y57A/N60A (dimerization assay) (human, UniProt Q5FBB7 47-105, Y57A | N60A); test: pull-down
[6] = target: FLAG-tagged MBP-Sgo1(47-105) Y57A/K62A (dimerization assay) (human, UniProt Q5FBB7 47-105, Y57A | K62A); test: pull-down
[7] = target: FLAG-tagged MBP-Sgo1(47-105) N60A/K62A (dimerization assay) (human, UniProt Q5FBB7 47-105, N60A | K62A); test: pull-down
[8] = target: FLAG-Sgo1(51-105) peptide (human, UniProt Q5FBB7 51-105); test: pull-down

PP2A C subunit (Cα), sequence (P67775 whole entry): as the sequence (P67775 whole entry, chain 3 of 3) above

**Q.** Does STLLKNYQDNNKMLVLALENEKSKVKEAQDIILQLRKECYYLTCQL (peptide, UniProt Q5FBB7 51-96, looked up) [Sgo1(51-96) peptide] bind [1]?
**A.** binds

B1: MBP-Sgo1(51-105) (domain or fragment, human, UniProt Q5FBB7 51-105, looked up)
chain: STLLKNYQDNNKMLVLALENEKSKVKEAQDIILQLRKECYYLTCQLYALKGKLTS
**Q.** Does B1 bind [2]?
**A.** binds

**Q.** And the “stoichiometry N” value [3]?
**A.** 2 Sgo1 per PP2A holoenzyme

B2: MBP-Sgo1(51-105) N61I, untagged (dimerization assay) (domain or fragment, human, UniProt Q5FBB7 51-105, looked up)
chain: B1 chain with N11I
modifications: cysteine pairing not given here; also: MBP fusion
**Q.** Does B2 bind [4]?
**A.** binds

B3: MBP-Sgo1(51-105) Y57A/N60A, untagged (dimerization assay) (domain or fragment, human, UniProt Q5FBB7 51-105, looked up)
chain: B1 chain with Y7A, N10A
modifications: cysteine pairing not given here; also: MBP fusion
**Q.** Does B3 bind [5]?
**A.** binds

B4: MBP-Sgo1(51-105) Y57A/K62A, untagged (dimerization assay) (domain or fragment, human, UniProt Q5FBB7 51-105, looked up)
chain: B1 chain with Y7A, K12A
modifications: cysteine pairing not given here; also: MBP fusion
**Q.** Does B4 bind [6]?
**A.** binds

B5: MBP-Sgo1(51-105) N60A/K62A, untagged (dimerization assay) (domain or fragment, human, UniProt Q5FBB7 51-105, looked up)
chain: B1 chain with N10A, K12A
modifications: cysteine pairing not given here; also: MBP fusion
**Q.** Does B5 bind [7]?
**A.** binds

B6: Sgo1(51-105) (peptide, UniProt Q5FBB7 51-105, looked up)
chain: B1 chain
**Q.** Does B6 bind [8]?
**A.** binds

**Q.** And the “stoichiometry N” value [3]?
**A.** 2 Sgo1 per PP2A holoenzyme
